To fix the notation:
B1: Peroxisome assembly protein 22 (Saccharomyces cerevisiae), P39718 (parent)
chain: MPPPSRSRINKTRTLGIVGTAIAVLVTSYYIYQKVTSAKEDNGARPPEGDSVKENKKARKSKCIIMSKSIQGLPIKWEEYAADEVVLLVPTSHTDGSMKQAIGDAFRKTKNEHKIIYCDSMDGLWSCVRRLGKFQCILNSRDFTSSGGSDAAVVPEDIGRFVKFVVDSDVEDVLIDTLCN
partner: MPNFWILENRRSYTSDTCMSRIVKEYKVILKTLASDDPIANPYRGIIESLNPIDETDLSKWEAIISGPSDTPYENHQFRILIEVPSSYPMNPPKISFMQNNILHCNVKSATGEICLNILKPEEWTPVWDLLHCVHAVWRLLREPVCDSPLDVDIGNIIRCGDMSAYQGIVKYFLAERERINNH
B2: Ubiquitin-conjugating enzyme E2-21 kDa (Saccharomyces cerevisiae), P29340 (parent)
chain: B1 partner
partner: B1 chain

In one experiment the parent is B1. The conditions noted are these: with ubcx_yeast PEX4, P29340.
For MPPPSRSRINKTRTLGIVGTAIAVLVTSYYIYQKVTSAKEDNGARPPEGDSVKENKKARKSKCIIMSKSIQGLPIKWEEYAADEVVLLVPTSHTDGSMKQAIGDAFRKTKNEHKIIYCDSMDGLWSCVRRLGAFQCILNSRDFTSSGGSDAAVVPEDIGRFVKFVVDSDVEDVLIDTLCN [K133A], the “effect of a mutation on the interaction” value is “decreasing interaction”.

Variants of B2 are the subject of another experiment. The conditions noted are these: with pex22_yeast PEX22, P39718.
Consider MPNFWILENRRSYTSDTCMSRIVKEYKVILKTLASDDPIANPYRGIIESLNPIDETDLSKWEAIISGPSDTPYENHQFRILIEVPSSYPMNPPKISFMQNNILHCNVKSATGEICLNILKPEEWTPVWDLLHCVHAVWRLLREPVCDSPLDVDIGNIIRCGDMSAYQGIVKFFLAERERINNH [Y172F], for which the “effect of a mutation on the interaction” value is on record as “decreasing interaction”.

Variants of B2 are the subject of another experiment. The conditions noted are these: with pex22_yeast PEX22, P39718. The source holds these as a separate data set.
Turning to MPNFWILENRRSYTSDTCMSRIVKEYKVILKTLASDDPIANPYRGIIESLNPIDETDLSKWEAIISGPSDTPYENHQFRILIEVPSSYPMNPPKISFMQNNILHCNVKSATGEICLNILKPEEWTPVWDLLHCVHAVWRLLREPVCDSPLDVDIGNIIRCGDMSAYQGIVKAFLAERERINNH [Y172A], the “effect of a mutation on the interaction” value is “disrupting interaction”.
